Target: Akt WT (transfected), P31749
Assay: co-immunoprecipitation (K8/K18 IP, Akt immunoblot, quantified)
Settings: chain shown with the change, BHK-21 cells transfected with Akt WT, parent: est. 1.0, read off a plot

Chain of Akt WT (transfected), P31749 (P31749 whole entry): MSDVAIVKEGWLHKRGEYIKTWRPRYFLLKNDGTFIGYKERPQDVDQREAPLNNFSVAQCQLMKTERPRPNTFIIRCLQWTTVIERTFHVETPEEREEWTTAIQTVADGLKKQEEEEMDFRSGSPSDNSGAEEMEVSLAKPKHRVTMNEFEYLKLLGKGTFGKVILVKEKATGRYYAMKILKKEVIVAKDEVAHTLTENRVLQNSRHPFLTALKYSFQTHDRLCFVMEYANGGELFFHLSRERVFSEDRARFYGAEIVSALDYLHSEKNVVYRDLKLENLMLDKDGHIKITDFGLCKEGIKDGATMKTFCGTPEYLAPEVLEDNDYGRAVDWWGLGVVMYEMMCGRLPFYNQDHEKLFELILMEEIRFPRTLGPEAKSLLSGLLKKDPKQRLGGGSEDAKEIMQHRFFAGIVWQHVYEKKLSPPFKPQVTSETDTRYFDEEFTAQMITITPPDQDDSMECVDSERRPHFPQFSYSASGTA

Binder | ratio to parent (K18 WT and the K8 mutant) | ratio to parent (K8 WT and the K18 mutant)
K8 WT/K18 WT (transfected), P05787;P05783 K8:G434S (protein) chain 1: MSIRVTQKSYKVSTSGPRAFSSRSYTSGPGSRISSSSFSRVGSSNFRGGLGGGYGGASGMGGITAVTVNQSLLSPLVLEVDPNIQAVRTQEKEQIKTLNNKFASFIDKVRFLEQQNKMLETKWSLLQQQKTARSNMDNMFESYINNLRRQLETLGQEKLKLEAELGNMQGLVEDFKNKYEDEINKRTEMENEFVLIKKDVDEAYMNKVELESRLEGLTDEINFLRQLYEEEIRELQSQISDTSVVLSMDNSRSLDMDSIIAEVKAQYEDIANRSRAEAESMYQIKYEELQSLAGKHGDDLRRTKTEISEMNRNISRLQAEIEGLKGQRASLEAAIADAEQRGELAIKDANAKLSELEAALQRAKQDMARQLREYQELMNVKLALDIEIATYRKLLEGEESRLESGMQNMSIHTKTTSGYAGGLSSAYGGLTSPSLSYSLGSSFGSGAGSSSFSRTSSSRAVVVKKIETRDGKLVSESSDVLPK chain 2: MSFTTRSTFSTNYRSLGSVQAPSYGARPVSSAASVYAGAGGSGSRISVSRSTSFRGGMGSGGLATGIAGGLAGMGGIQNEKETMQSLNDRLASYLDRVRSLETENRRLESKIREHLEKKGPQVRDWSHYFKIIEDLRAQIFANTVDNARIVLQIDNARLAADDFRVKYETELAMRQSVENDIHGLRKVIDDTNITRLQLETEIEALKEELLFMKKNHEEEVKGLQAQIASSGLTVEVDAPKSQDLAKIMADIRAQYDELARKNREELDKYWSQQIEESTTVVTTQSAEVGAAETTLTELRRTVQSLEIDLDSMRNLKASLENSLREVEARYALQMEQLNGILLHLESELAQTRAEGQRQAQEYEALLNIKVKLEAEIATYRRLLEDGEDFNLGDALDSSNSMQTIQKTTTRRIVDGKVVSETNDTKVLRH | 1.2 | –
K8 WT/K18 WT (transfected), P05787;P05783 K8:G62C (protein) chain 1: MSIRVTQKSYKVSTSGPRAFSSRSYTSGPGSRISSSSFSRVGSSNFRGGLGGGYGGASGMGCITAVTVNQSLLSPLVLEVDPNIQAVRTQEKEQIKTLNNKFASFIDKVRFLEQQNKMLETKWSLLQQQKTARSNMDNMFESYINNLRRQLETLGQEKLKLEAELGNMQGLVEDFKNKYEDEINKRTEMENEFVLIKKDVDEAYMNKVELESRLEGLTDEINFLRQLYEEEIRELQSQISDTSVVLSMDNSRSLDMDSIIAEVKAQYEDIANRSRAEAESMYQIKYEELQSLAGKHGDDLRRTKTEISEMNRNISRLQAEIEGLKGQRASLEAAIADAEQRGELAIKDANAKLSELEAALQRAKQDMARQLREYQELMNVKLALDIEIATYRKLLEGEESRLESGMQNMSIHTKTTSGYAGGLSSAYGGLTSPGLSYSLGSSFGSGAGSSSFSRTSSSRAVVVKKIETRDGKLVSESSDVLPK chain 2: MSFTTRSTFSTNYRSLGSVQAPSYGARPVSSAASVYAGAGGSGSRISVSRSTSFRGGMGSGGLATGIAGGLAGMGGIQNEKETMQSLNDRLASYLDRVRSLETENRRLESKIREHLEKKGPQVRDWSHYFKIIEDLRAQIFANTVDNARIVLQIDNARLAADDFRVKYETELAMRQSVENDIHGLRKVIDDTNITRLQLETEIEALKEELLFMKKNHEEEVKGLQAQIASSGLTVEVDAPKSQDLAKIMADIRAQYDELARKNREELDKYWSQQIEESTTVVTTQSAEVGAAETTLTELRRTVQSLEIDLDSMRNLKASLENSLREVEARYALQMEQLNGILLHLESELAQTRAEGQRQAQEYEALLNIKVKLEAEIATYRRLLEDGEDFNLGDALDSSNSMQTIQKTTTRRIVDGKVVSETNDTKVLRH | 1.7 | –

Other lines, results leading:

ratio to parent (K18 WT and the K8 mutant) | ratio to parent (K8 WT and the K18 mutant) | Binder
1.8 | – | K8 WT/K18 WT (transfected), P05787;P05783 K8:R302C (protein) chain 1: MSIRVTQKSYKVSTSGPRAFSSRSYTSGPGSRISSSSFSRVGSSNFRGGLGGGYGGASGMGGITAVTVNQSLLSPLVLEVDPNIQAVRTQEKEQIKTLNNKFASFIDKVRFLEQQNKMLETKWSLLQQQKTARSNMDNMFESYINNLRRQLETLGQEKLKLEAELGNMQGLVEDFKNKYEDEINKRTEMENEFVLIKKDVDEAYMNKVELESRLEGLTDEINFLRQLYEEEIRELQSQISDTSVVLSMDNSRSLDMDSIIAEVKAQYEDIANRSRAEAESMYQIKYEELQSLAGKHGDDLRCTKTEISEMNRNISRLQAEIEGLKGQRASLEAAIADAEQRGELAIKDANAKLSELEAALQRAKQDMARQLREYQELMNVKLALDIEIATYRKLLEGEESRLESGMQNMSIHTKTTSGYAGGLSSAYGGLTSPGLSYSLGSSFGSGAGSSSFSRTSSSRAVVVKKIETRDGKLVSESSDVLPK chain 2: MSFTTRSTFSTNYRSLGSVQAPSYGARPVSSAASVYAGAGGSGSRISVSRSTSFRGGMGSGGLATGIAGGLAGMGGIQNEKETMQSLNDRLASYLDRVRSLETENRRLESKIREHLEKKGPQVRDWSHYFKIIEDLRAQIFANTVDNARIVLQIDNARLAADDFRVKYETELAMRQSVENDIHGLRKVIDDTNITRLQLETEIEALKEELLFMKKNHEEEVKGLQAQIASSGLTVEVDAPKSQDLAKIMADIRAQYDELARKNREELDKYWSQQIEESTTVVTTQSAEVGAAETTLTELRRTVQSLEIDLDSMRNLKASLENSLREVEARYALQMEQLNGILLHLESELAQTRAEGQRQAQEYEALLNIKVKLEAEIATYRRLLEDGEDFNLGDALDSSNSMQTIQKTTTRRIVDGKVVSETNDTKVLRH
– | 1.2 | K8 WT/K18 WT (transfected), P05787;P05783 K18:D238E; K18:D396E (protein) chain 1: MSIRVTQKSYKVSTSGPRAFSSRSYTSGPGSRISSSSFSRVGSSNFRGGLGGGYGGASGMGGITAVTVNQSLLSPLVLEVDPNIQAVRTQEKEQIKTLNNKFASFIDKVRFLEQQNKMLETKWSLLQQQKTARSNMDNMFESYINNLRRQLETLGQEKLKLEAELGNMQGLVEDFKNKYEDEINKRTEMENEFVLIKKDVDEAYMNKVELESRLEGLTDEINFLRQLYEEEIRELQSQISDTSVVLSMDNSRSLDMDSIIAEVKAQYEDIANRSRAEAESMYQIKYEELQSLAGKHGDDLRRTKTEISEMNRNISRLQAEIEGLKGQRASLEAAIADAEQRGELAIKDANAKLSELEAALQRAKQDMARQLREYQELMNVKLALDIEIATYRKLLEGEESRLESGMQNMSIHTKTTSGYAGGLSSAYGGLTSPGLSYSLGSSFGSGAGSSSFSRTSSSRAVVVKKIETRDGKLVSESSDVLPK chain 2: MSFTTRSTFSTNYRSLGSVQAPSYGARPVSSAASVYAGAGGSGSRISVSRSTSFRGGMGSGGLATGIAGGLAGMGGIQNEKETMQSLNDRLASYLDRVRSLETENRRLESKIREHLEKKGPQVRDWSHYFKIIEDLRAQIFANTVDNARIVLQIDNARLAADDFRVKYETELAMRQSVENDIHGLRKVIDDTNITRLQLETEIEALKEELLFMKKNHEEEVKGLQAQIASSGLTVEVEAPKSQDLAKIMADIRAQYDELARKNREELDKYWSQQIEESTTVVTTQSAEVGAAETTLTELRRTVQSLEIDLDSMRNLKASLENSLREVEARYALQMEQLNGILLHLESELAQTRAEGQRQAQEYEALLNIKVKLEAEIATYRRLLEDGEDFNLGDALESSNSMQTIQKTTTRRIVDGKVVSETNDTKVLRH

— article PMC8430995
